Experimental findings from patent publication US20190016825A1 are described below.

The target of assay [1] is biotin-PCSK9-his (UniProt Q8NBP7). Put plainly: competitive ELISA, one antibody coated, biotin-PCSK9-his plus 50-fold competitor; competitor: h001-4. Background: ELISA stands for enzyme-linked immunosorbent assay.
The target is the same in assay [2]. Description: competitive ELISA, one antibody coated, biotin-PCSK9-his plus 50-fold competitor; competitor: 21B12.

As to “21B12 (U.S. Pat. No. 8,030,457B2) (antibody)”, the IR (%) with biotin-PCSK9-his [1] was found to be 3.86%; with biotin-PCSK9-his [2], 97.8%.
